Experimental data reported in publication PMC5927996.
Each block holds one molecule with its values, some of them ahead of it.

What was measured:
collagen = test: cell adhesion assay
fibrinogen = fibrinogen (UniProt P02671); test: SPR
fibrinogen, P02671 = molecular target: T1, fibrinogen, P02671; test: cell adhesion assay; conditions: remark: other sources report otherwise
T1 chain 1: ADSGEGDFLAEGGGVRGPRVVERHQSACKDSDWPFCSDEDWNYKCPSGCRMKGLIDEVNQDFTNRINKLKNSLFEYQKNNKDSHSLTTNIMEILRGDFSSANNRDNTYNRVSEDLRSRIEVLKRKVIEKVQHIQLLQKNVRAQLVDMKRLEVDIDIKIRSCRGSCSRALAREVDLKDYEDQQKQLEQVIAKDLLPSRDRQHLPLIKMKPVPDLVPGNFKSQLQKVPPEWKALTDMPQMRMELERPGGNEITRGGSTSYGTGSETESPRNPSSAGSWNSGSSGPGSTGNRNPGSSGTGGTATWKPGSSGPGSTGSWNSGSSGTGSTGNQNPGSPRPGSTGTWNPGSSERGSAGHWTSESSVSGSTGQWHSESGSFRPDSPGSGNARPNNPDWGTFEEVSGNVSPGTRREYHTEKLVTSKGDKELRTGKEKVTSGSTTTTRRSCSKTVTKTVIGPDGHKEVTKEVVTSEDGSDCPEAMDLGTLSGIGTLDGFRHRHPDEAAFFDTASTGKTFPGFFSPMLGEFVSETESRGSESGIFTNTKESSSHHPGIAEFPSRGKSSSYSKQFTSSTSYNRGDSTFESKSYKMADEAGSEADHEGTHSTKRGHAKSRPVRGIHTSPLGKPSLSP
T1 chain 2: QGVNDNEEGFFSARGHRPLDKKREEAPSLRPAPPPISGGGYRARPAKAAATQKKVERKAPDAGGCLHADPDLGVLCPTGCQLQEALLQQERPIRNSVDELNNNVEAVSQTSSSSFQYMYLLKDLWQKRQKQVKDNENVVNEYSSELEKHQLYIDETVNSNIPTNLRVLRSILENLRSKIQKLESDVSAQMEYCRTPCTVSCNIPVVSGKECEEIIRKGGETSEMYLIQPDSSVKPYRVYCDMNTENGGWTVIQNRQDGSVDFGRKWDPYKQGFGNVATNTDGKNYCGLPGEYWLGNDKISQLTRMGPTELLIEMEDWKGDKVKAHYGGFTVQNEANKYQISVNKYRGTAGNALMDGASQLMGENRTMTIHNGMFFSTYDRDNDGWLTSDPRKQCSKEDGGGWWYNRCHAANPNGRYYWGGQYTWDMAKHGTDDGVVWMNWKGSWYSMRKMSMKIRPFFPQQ
T1 chain 3: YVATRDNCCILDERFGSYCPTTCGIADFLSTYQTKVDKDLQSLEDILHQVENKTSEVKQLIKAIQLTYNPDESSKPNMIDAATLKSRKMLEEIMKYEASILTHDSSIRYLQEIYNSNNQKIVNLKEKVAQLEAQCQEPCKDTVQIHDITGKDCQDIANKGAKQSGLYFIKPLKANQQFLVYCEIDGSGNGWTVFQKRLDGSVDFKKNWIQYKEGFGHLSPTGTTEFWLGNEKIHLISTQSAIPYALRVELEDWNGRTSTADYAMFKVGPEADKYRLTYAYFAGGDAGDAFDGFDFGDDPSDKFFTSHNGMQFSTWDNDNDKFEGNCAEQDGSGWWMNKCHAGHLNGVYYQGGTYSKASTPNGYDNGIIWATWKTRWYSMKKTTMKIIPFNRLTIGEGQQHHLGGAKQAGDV

fold increase in cell adhesion relative to mock-transfected cells (collagen): 3 fold
Molecule: human GPVI expressed on RBL-2H3 cells (from UniProt Q9HCN6 21-339) (receptor)

Kd (fibrinogen): 336 nM
koff (fibrinogen): 0.00394 s⁻¹
kon (fibrinogen): 11700 M⁻¹ s⁻¹
Molecule: recombinant soluble GPVI extracellular domain, monomer (GPVI-ex) (from UniProt Q9HCN6 21-267) (domain or fragment)

fold increase in cell adhesion relative to mock-transfected cells (fibrinogen, P02671): 3 fold
B1: human GPVI expressed on RBL-2H3 cells, Q9HCN6 21-339 (receptor)
chain: QSGPLPKPSLQALPSSLVPLEKPVTLRCQGPPGVDLYRLEKLSSSRYQDQAVLFIPAMKRSLAGRYRCSYQNGSLWSLPSDQLELVATGVFAKPSLSAQPGPAVSSGGDVTLQCQTRYGFDQFALYKEGDPAPYKNPERWYRASFPIITVTAAHSGTYRCYSFSSRDPYLWSAPSDPLELVVTGTSVTPSRLPTEPPSPVAEFSEATAELTVSFTNEVFTTETSRSITASPKESDSPAGPARQYYTKGNLVRICLGAVILIILAGFLAEDWHSRRKRLRHRGRAVQRPLPPLPPLPLTRKSNGGQDGGRQDVHSRGLCS
